1 variant from IntAct's records for PubMed 15774581 can be followed below.

To fix the notation:
B1: Krueppel-like factor 11 (Homo sapiens), O14901 (parent)
chain: MHTPDFAGPDDARAVDIMDICESILERKRHDSERSTCSILEQTDMEAVEALVCMSSWGQRSQKGDLLRIRPLTPVSDSGDVTTTVHMDAATPELPKDFHSLSTLCITPPQSPDLVEPSTRTPVSPQVTDSKACTATDVLQSSAVVARALSGGAERGLLGLEPVPSSPCRAKGTSVIRHTGESPAACFPTIQTPDCRLSDSREGEEQLLGHFETLQDTHLTDSLLSTNLVSCQPCLHKSGGLLLTDKGQQAGWPGAVQTCSPKNYENDLPRKTTPLISVSVPAPPVLCQMIPVTGQSSMLPAFLKPPPQLSVGTVRPILAQAAPAPQPVFVGPAVPQGAVMLVLPQGALPPPAPCAANVMAAGNTKLLPLAPAPVFITSSQNCVPQVDFSRRRNYVCSFPGCRKTYFKSSHLKAHLRTHTGEKPFNCSWDGCDKKFARSDELSRHRRTHTGEKKFVCPVCDRRFMRSDHLTKHARRHMTTKKIPGWQAEVGKLNRIASAESPGSPLVSMPASA
partner: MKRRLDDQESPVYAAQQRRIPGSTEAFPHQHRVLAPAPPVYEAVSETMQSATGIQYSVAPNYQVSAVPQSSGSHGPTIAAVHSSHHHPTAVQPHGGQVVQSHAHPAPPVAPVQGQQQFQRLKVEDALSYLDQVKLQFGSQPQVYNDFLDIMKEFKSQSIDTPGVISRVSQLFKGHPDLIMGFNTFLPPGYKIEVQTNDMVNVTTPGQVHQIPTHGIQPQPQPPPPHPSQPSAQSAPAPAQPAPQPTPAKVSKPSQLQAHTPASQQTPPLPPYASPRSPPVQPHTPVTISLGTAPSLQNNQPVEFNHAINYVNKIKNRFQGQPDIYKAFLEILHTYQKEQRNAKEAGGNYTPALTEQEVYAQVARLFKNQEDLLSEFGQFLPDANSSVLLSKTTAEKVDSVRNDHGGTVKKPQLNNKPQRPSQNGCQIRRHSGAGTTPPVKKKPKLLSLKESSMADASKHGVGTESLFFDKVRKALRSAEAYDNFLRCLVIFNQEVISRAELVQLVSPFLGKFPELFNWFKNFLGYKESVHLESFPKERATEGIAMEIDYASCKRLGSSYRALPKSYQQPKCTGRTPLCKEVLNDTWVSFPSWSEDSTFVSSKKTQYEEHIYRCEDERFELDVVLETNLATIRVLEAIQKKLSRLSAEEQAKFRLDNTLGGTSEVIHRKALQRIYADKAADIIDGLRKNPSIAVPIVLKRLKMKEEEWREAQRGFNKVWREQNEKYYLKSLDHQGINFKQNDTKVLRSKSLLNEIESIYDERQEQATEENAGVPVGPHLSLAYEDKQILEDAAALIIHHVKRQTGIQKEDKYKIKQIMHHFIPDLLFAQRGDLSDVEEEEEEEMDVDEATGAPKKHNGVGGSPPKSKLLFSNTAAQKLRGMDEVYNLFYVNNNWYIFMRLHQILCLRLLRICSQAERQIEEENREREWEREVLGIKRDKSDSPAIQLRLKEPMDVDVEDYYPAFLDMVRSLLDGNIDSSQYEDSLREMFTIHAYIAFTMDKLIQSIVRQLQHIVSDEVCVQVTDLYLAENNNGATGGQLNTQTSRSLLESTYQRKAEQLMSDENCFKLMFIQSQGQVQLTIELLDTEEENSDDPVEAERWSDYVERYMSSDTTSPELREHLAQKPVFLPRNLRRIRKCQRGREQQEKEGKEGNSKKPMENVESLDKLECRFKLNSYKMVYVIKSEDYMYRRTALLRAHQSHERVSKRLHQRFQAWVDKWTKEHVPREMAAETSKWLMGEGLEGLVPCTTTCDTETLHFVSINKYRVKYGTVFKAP

The assay covers variants of B1. The conditions noted are these: with Sin3a.
In the case of Q62R, the “effect of a mutation on the interaction” value was “increasing interaction”.
